Laboratory results from patent US6585979.

How the values were obtained:
[1] = target: rgp120 from breakthrough virus clone C7.2 (herpes simplex virus type 1; HIV-1, breakthrough virus of vaccinee C7); assay: capture ELISA, MAb at 2 ug/ml
[2] = target: rgp120 from breakthrough virus clone C6.1 (herpes simplex virus type 1; HIV-1, breakthrough virus of vaccinee C6); assay: capture ELISA, MAb at 2 ug/ml
[3] = target: rgp120 from breakthrough virus clone C17.3 (herpes simplex virus type 1; HIV-1, breakthrough virus of vaccinee C17); assay: capture ELISA, MAb at 2 ug/ml
[4] = target: rgp120 from breakthrough virus clone C10.5 (herpes simplex virus type 1; HIV-1, breakthrough virus of vaccinee C10); assay: capture ELISA, MAb at 2 ug/ml
[5] = target: rgp120 from breakthrough virus clone C17.1 (herpes simplex virus type 1; HIV-1, breakthrough virus of vaccinee C17); assay: capture ELISA, MAb at 2 ug/ml
[6] = target: rgp120 from breakthrough virus clone C6.5 (herpes simplex virus type 1; HIV-1, breakthrough virus of vaccinee C6); assay: capture ELISA, MAb at 2 ug/ml
[7] = target: rgp120 from breakthrough virus clone C15.3 (herpes simplex virus type 1; HIV-1, breakthrough virus of vaccinee C15); assay: capture ELISA, MAb at 2 ug/ml
[8] = target: rgp120 from breakthrough virus clone C8.3 (herpes simplex virus type 1; HIV-1, breakthrough virus of vaccinee C8); assay: capture ELISA, MAb at 2 ug/ml
[9] = target: rgp120 from breakthrough virus clone C11.5 (herpes simplex virus type 1; HIV-1, breakthrough virus of vaccinee C11); assay: capture ELISA, MAb at 2 ug/ml
[10] = target: rgp120 from breakthrough virus clone C10.7 (herpes simplex virus type 1; HIV-1, breakthrough virus of vaccinee C10); assay: capture ELISA, MAb at 2 ug/ml
[11] = target: rgp120 from breakthrough virus clone C15.2 (herpes simplex virus type 1; HIV-1, breakthrough virus of vaccinee C15); assay: capture ELISA, MAb at 2 ug/ml
[12] = target: rgp120 from breakthrough virus clone C11.7 (herpes simplex virus type 1; HIV-1, breakthrough virus of vaccinee C11); assay: capture ELISA, MAb at 2 ug/ml
[13] = target: rgp120 from breakthrough virus clone C8.6 (herpes simplex virus type 1; HIV-1, breakthrough virus of vaccinee C8); assay: capture ELISA, MAb at 2 ug/ml
[14] = target: MN-rgp120 (herpes simplex virus type 1; HIV-1, MN strain); assay: capture ELISA, MAb at 2 ug/ml (reference)
[15] = target: MN-rgp120 (herpes simplex virus type 1; HIV-1, MN strain); assay: capture ELISA (FIG. 5C)

Substance	relative reactivity (OD ratio to MN-rgp120) [1]	relative reactivity (OD ratio to MN-rgp120) [2]	relative reactivity (OD ratio to MN-rgp120) [3]	relative reactivity (OD ratio to MN-rgp120) [4]	relative reactivity (OD ratio to MN-rgp120) [5]	relative reactivity (OD ratio to MN-rgp120) [6]	relative reactivity (OD ratio to MN-rgp120) [7]	relative reactivity (OD ratio to MN-rgp120) [8]	relative reactivity (OD ratio to MN-rgp120) [9]	relative reactivity (OD ratio to MN-rgp120) [10]	relative reactivity (OD ratio to MN-rgp120) [11]	relative reactivity (OD ratio to MN-rgp120) [12]	relative reactivity (OD ratio to MN-rgp120) [13]	relative reactivity (OD ratio to MN-rgp120) [14]	fold greater binding than to any of the breakthrough virus envelope proteins [15] [fold]
MAb 15e (antibody)	0.71	0.17	0.33	0.46	0.33	0.75	0.63	0.38	0.17	0.5	0.92	0.17	0.29	1	–
MAb 50.1 (antibody)	0.6	0.37	0.56	0.4	0.52	0.33	0.37	0.37	0	0.48	0.47	0	0.34	1	10
